Assay results reported in PMC10630886, “Downregulation of stromal syntenin sustains AML development” (EMBO Molecular Medicine, 2023).
No end group written: not given here.

T1: 6xHis-tagged GIPC1 construct (UniProt O14908 1-333)
T1 construct: also called recombinant GIPC1; source: recombinant; prepared as described previously (PMID: 27386966)
T1 sequence (looked up): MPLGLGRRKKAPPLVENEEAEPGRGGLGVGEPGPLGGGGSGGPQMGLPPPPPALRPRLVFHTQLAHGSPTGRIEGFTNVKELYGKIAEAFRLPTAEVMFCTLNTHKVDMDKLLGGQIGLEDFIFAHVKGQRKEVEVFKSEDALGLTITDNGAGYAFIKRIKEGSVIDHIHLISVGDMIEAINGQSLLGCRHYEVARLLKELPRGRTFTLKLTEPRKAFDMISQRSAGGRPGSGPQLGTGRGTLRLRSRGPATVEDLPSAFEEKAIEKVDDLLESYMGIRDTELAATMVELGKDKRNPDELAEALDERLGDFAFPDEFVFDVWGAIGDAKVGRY


What was measured:
[1] = target: biotinylated peptide corresponding to the last 25 amino acids of endoglin wild-type; assay: SPR; BIAcore T200, 25°C; 100 RU of biotinylated endoglin peptide immobilised on a streptavidin chip; His-tagged protein perfused (0.5 to 120 μM) at 30 μl/min in 10 mM HEPES pH 7.4, 150 mM NaCl, 0.005% Tween 20; apparent KD from equilibrium responses, Langmuir isotherm
[2] = target: T1, 6xHis-tagged GIPC1 construct; assay: as above; settings: both partners purified

Molecule | Kd [1] [µM] | Kd [2] [µM]
6xHis-tagged syntenin construct (containing the two PDZ domains and the C-terminal domain) (domain or fragment) | 27.1 | –
SSESSSTNHSIGSTQSTPCSTSSMA (also: biotinylated, position not given here, endoglin (CD105), last 25 C-terminal amino acids, wild type; also called endoglin cytosolic domain; immobilized peptide corresponding to the last 25 C-terminal amino acids of wild-type endoglin) [biotinylated peptide corresponding to the last 25 amino acids of endoglin wild-type] | – | 2.4
